# Source: article doi:10.1101/2025.02.25.640118 (bioRxiv, 2025)
# T1: HUαβ (E. coli, UniProt P0ACF0 1-90; P0ACF4 1-90)
# T1 sequence (looked up) 1: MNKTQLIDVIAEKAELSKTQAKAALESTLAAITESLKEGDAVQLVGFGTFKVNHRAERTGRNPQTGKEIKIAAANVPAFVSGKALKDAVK
# T1 sequence (looked up) 2: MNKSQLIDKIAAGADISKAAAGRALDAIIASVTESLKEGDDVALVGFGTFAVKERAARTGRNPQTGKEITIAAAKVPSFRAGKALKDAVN
# T2: IHF (E. coli, UniProt P0A6X7 1-99; P0A6Y1 1-94)
# T2 sequence (looked up) 1: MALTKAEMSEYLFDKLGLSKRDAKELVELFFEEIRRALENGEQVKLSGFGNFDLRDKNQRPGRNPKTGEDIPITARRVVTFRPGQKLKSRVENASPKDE
# T2 sequence (looked up) 2: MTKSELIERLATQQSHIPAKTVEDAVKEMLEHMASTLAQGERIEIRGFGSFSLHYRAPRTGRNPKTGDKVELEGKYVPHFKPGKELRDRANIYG
# B1: HUαα-MsyB complex (complex, E. coli)
# chain 1: T1 sequence (looked up) 1
# chain 2: MTMYATLEEAIDAAREEFLADNPGIDAEDANVQQFNAQKYVLQDGDIMWQVEFFADEGEEGECLPMLSGEAAQSVFDGDYDEIEIRQEWQEENTLHEWDEGEFQLEPPLDTEEGRAAADEWDER
# B2: MsyB (Escherichia coli protein MsyB) (natural protein, E. coli, UniProt P25738 1-124, looked up)
# chain: B1 chain 2
# B3: dsDNA (DNA1/DNA2), 21 bp (dsDNA)
# DNA 1: TGCTTATCAATTTGTTGCACC
# DNA 2: GGTGCAACAAATTGATAAGCA
# Assays:
# [1] = target: MsyB (Escherichia coli protein MsyB) (E. coli) (UniProt P25738); experiment: BLI
# [2] = target: MsyB (Escherichia coli protein MsyB) (E. coli) (UniProt P25738); experiment: SEC
# [3] = target: β-clamp (β subunit of DNA polymerase) (E. coli, UniProt P0A988 1-366); experiment: BLI
# Chain of β-clamp (β subunit of DNA polymerase) (P0A988 whole entry): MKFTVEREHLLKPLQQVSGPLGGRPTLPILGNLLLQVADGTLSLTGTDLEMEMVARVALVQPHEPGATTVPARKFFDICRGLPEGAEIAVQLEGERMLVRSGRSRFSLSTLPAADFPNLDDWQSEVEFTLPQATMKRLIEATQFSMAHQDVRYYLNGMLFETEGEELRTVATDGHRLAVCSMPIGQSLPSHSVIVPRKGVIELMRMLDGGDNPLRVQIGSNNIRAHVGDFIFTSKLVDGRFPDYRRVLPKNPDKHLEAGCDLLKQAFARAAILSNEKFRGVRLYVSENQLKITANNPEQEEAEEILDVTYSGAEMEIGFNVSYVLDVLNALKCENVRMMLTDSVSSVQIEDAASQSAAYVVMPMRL
# HUαβ = target: T1, HUαβ; experiment: BLI
# IHF = target: T2, IHF
# [4] = target: HUαα (HU alpha homodimer) (Escherichia coli, UniProt P0ACF0 1-90); experiment: EMSA
molecule,measurement,setting,value
β-clamp (β subunit of DNA polymerase) (from UniProt P0A988 1-366) (natural protein),Kd,[1],700 nM
HUαα (from UniProt P0ACF0 1-90) (natural protein),Kd,[1],4.88 nM
same,stoichiometry N,[2],1
B1,Kd,[3],500 nM
B2,Kd,HUαβ,3.22 nM
same,Kd,IHF,95 nM
B3,binding result,[4],binds
